Measurements reported in patent US20190376122, “SINGLE-STRAND BINDING PROTEIN” (Universitetet I Tromsø - Norges Arktiske Universitet, published 2019).

How the values were obtained:
E. coli SSB = E. coli SSB (Escherichia coli, UniProt P0AGE0 P0AGE0:2-178); experiment: beacon fluorescence, 0.25 uM tetramer; binding decreases significantly with increasing concentration of all tested salts; 25 C; conditions: chain copies: tetramer (stated); label: dT-DABCYL and dT-FAM internal; partial hairpin with short 8 bp stem and 24 nt single-stranded loop
Protocol: (§1) Wild-type S.ruber SSB and the D17K D71K mutant were tested for their ability to bind ssDNA in reaction buffer supplemented with NaCl, KCl, MgCl₂ and CaCl₂. E. coli SSB was used as a well characterized, reference protein.
(§2) Reactions contained 0.125 μM of molecular beacon and 0.25 μM of E. coli SSB tetramer (single binding unit), 4 μM of wt SrSSB and 2 μM of D17K D71K. Reaction mixtures were set up in triplicates in 50 μl of reaction buffer MB (10 mM Tris-HCl pH 7, 10 mM NaCl) containing the fluorescent probe and supplemented with an indicated concentration of NaCl, KCl or MgCl₂ in 96-well plate (Corning). The binding reaction was initiated by addition of the indicated SSB protein, next reactions were incubated at 25° C. for 15′ and the fluorescence was measured with excitation at 495 nm and emission at 520 nm on the Gemini plate reader (Molecular Devices). All graphs were normalized to 100% of initial response, measured in fluorescence units.

SrSSB D17K D71K mutant [1] = molecular target: T1, SrSSB D17K D71K mutant (Salinibacter ruber); experiment: beacon dehybridization fluorescence, 2 uM protein; level similar to wt at half the concentration; maintained in high NaCl, KCl, MgCl2; 25 C; conditions: chain copies: octamer (stated); label: dT-DABCYL and dT-FAM internal; partial hairpin with short 8 bp stem and 24 nt single-stranded loop
T1 chain: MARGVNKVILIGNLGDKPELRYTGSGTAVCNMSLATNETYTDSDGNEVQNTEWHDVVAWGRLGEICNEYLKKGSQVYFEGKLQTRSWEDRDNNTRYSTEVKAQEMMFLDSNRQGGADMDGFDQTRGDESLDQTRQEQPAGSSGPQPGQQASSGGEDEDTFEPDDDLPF
Protocol: as §1, §2

[2] = molecular target: T2, wild-type Salinibacter ruber SSB (SrSSB) (Salinibacter ruber DSM 13855); experiment: beacon dehybridization fluorescence, 4 uM protein; binding maintained with NaCl to 1 M, KCl to 1 M, MgCl2 to 250 mM; 25 C; conditions: chain copies: octamer/dodecamer mixture at 0.15 M NaCl; mostly octamer at 2 M NaCl (stated); label: dT-DABCYL and dT-FAM internal; partial hairpin with short 8 bp stem and 24 nt single-stranded loop
T2 chain: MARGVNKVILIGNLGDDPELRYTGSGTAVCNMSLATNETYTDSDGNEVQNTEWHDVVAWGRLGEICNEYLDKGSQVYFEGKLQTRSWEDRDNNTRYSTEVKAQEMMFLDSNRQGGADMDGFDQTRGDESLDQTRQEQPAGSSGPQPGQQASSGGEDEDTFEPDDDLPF
Protocol: as §1, §2

SrSSB D17K D71K mutant [3] = molecular target: T1, SrSSB D17K D71K mutant; experiment: SPR; 10 mM Tris-HCl pH 7, 10 mM NaCl; Chi2 0.624; conditions: chain copies: octamer (stated); label: 5'-biotin
Source text: (§3) Higher binding affinity of the D17K D71K mutant was also confirmed by probing the protein-ssDNA interaction strength directly with the use of Surface Plasmon Resonance on a T200 instrument (BIACORE). This biosensor-based technique enables real-time measurement of binding parameters that enables calculation of equilibrium dissociation constant (KD) of different complexes, including nucleoprotein complexes. To ensure that the measurement is not biased by nucleotide sequence, a randomly generated, 150 nucleotide, 5′-biotynylated ssDNA oligonucleotide was used (Table 2, SEQ ID NO:11). Oligonucleotides were attached to the surface of the SA S-type chip (BIACORE) via biotin-streptavidin interaction. Next, both proteins were run in dilutions: 10 nM, 20 nM, 40 nM, 100 nM, 150 nM, 200 nM, 300 nM over the chip surface in MB buffer (10 mM Tris-HCl pH 7, 10 mM NaCl). The binding event was detected by mass change on the chip surface, which enabled real time measurements of the kinetic parameters of protein-ssDNA interaction.

[4] = molecular target: T2, wild-type Salinibacter ruber SSB (SrSSB); experiment: SPR; 10 mM Tris-HCl pH 7, 10 mM NaCl; Chi2 0.529; conditions: chain copies: octamer/dodecamer mixture at 0.15 M NaCl; mostly octamer at 2 M NaCl (stated); label: 5'-biotin
Source text: as §3

[5] = molecular target: T2, wild-type Salinibacter ruber SSB (SrSSB); experiment: structure; PDB 5ODN; d(T)8 soaked; one ssDNA fragment per OB-fold; 0.25 M MgCl2, 1 M ammonium sulphate, pH 8.0; conditions: chain copies: octamer/dodecamer mixture at 0.15 M NaCl; mostly octamer at 2 M NaCl (stated)
Protocol: Small, prism-shaped crystals of wild-type S. ruber SSB were obtained in sitting drops consisting of 1 μl of protein solution (5 mg/ml) containing 20 μM of d(T)₇₅ oligonucleotide and 1 μl of reservoir solution (27% w/v PEG 3350, 100 mM Tris-HCl pH 8.0, 0.25M MgCl₂, 1 M ammonium sulphate). Soaking experiments were performed by adding d(T)₈ oligonucleotide to the drops containing formed crystals, to a final concentration of 0.25 μM.

Sequence of E. coli SSB (P0AGE0 2-178, one chain of several): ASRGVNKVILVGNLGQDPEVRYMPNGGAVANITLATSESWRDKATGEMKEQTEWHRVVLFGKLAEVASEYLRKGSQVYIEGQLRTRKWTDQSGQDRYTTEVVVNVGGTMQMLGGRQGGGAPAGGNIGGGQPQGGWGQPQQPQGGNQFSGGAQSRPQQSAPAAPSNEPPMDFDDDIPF

B1: MB molecular beacon (ssDNA)
DNA: GGCCCGTAGGAGGAAAGGACATCTTCTAGCATACGGGCCGTCAAGTTCATGGCCAGTCAAGTCGTCAGAAATTTCGCACCAC
Does B1 bind (E. coli SSB)?
Result: binds

Does B1 bind (SrSSB D17K D71K mutant [1])?
Result: binds

Does B1 bind [2]?
Result: binds

B2: SPR 150nt oligonucleotide (ssDNA)
DNA: AAAGGGTATTGACGGACCAGATGTAGCGTGGCAGAAAAGGGTATTGACGGACCAGATGTAGCGTGGCAGAGACTGAAAGGGTATTGACGGACCAGATGTAGCGTGGCAGAAAAGGGTATTGACGGACCAGATGTAGCGTGGCAGAGACTG
With B2 as the binder, how does the Kd (SrSSB D17K D71K mutant [3]) read?
The Kd was 19.1 nM.

What about the Kd [4] of the same binder?
Its Kd is 34.3 nM.

Does TTTTTTTT (ssDNA) [d(T)8] bind [5]?
Result: binds
